Experimental data as given in patent US20090318342A1, “Compounds” (IMPERIAL INNOVATIONS LIMITED, priority 2005, published 2009).

T1: human ADAMTS-4 lacking the C-terminal spacer domain (Homo sapiens, UniProt O75173)
T1 construct: Recombinant human ADAMTS-4 lacking the C-terminal spacer domain; made in house
T1 sequence (O75173 213-685 limits assumed): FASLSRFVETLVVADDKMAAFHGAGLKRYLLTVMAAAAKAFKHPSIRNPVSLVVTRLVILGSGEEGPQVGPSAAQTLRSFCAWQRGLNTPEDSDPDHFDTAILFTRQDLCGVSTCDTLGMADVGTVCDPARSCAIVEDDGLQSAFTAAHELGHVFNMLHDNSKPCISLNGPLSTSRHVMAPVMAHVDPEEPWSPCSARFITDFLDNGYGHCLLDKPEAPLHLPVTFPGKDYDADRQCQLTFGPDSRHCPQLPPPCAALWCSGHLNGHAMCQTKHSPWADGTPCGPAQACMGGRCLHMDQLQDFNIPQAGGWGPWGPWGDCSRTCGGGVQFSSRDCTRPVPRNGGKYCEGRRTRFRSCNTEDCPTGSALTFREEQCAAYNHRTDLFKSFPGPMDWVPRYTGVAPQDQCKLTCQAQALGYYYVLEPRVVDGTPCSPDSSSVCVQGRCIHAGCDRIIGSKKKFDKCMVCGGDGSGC


Key:
[1] = tested on: monocyte-derived macrophages (MDM); experiment: TNFα release by monocyte-derived macrophages (ELISA); format: cell-based, human; details: for EC50: 10 ng/ml LPS, read-out: EC50 for inhibition of LPS stimulated TNFα release by MDM; for Effect on basal TNFα release by MDM: no LPS
Description: FIG. 9. The effect of TIMP-3 mutants on TNFα release by monocyte-derived-macrophages (MDM). […] Data is normalised to % LPS stimulation.
To address the efficacy of TMP-3 mutants on MDM, MDM from a healthy subject were cultured in the laboratory and stimulated with LPS. The effect of TIMP-3 mutants on MMP-9 activity and TNFα was measured.
This method was adapted from Dransfield et al., [7] and performed under sterile conditions. Blood was collected into EDTA (2% W/v). Dextran solution (6% w/v) was added to the whole blood in volumes of 10 ml per 20 ml blood and the final volume adjusted to 50 ml in Dulbecco's PBS. The samples were allowed to sediment at room temperature for 45 min. After sedimentation, the upper leukocyte rich layer was centrifuged at 400×g for 10 min, 4° C. and the supernatant discarded. The pellets containing the cells were resuspended in Dulbecco's PBS and centrifuged for a second time as before.
The gradient consisted of three separate concentrations of Percoll™. A ‘100% v/v’ Percoll™ solution was prepared from 90% v/v Percoll™ containing 10% v/v 10×PBS. The gradient was then prepared as follows: 4 ml 81% v/v Percoll was added to a 15 ml Falcon tube. This was overlaid by 4 ml 70% v/v Percoll. The cell pellet was resuspended in 3 ml of 55% v/v Percoll™ and then overlaid onto the pre-prepared gradient. The cells were centrifuged at 750×g for 20 min at 4° C. The peripheral blood mononuclear cells (PBMCs) were harvested from the 55%/70% interface (top layer) and the polymorphonuclear (PMN) cells remained at the 70%/81% interface (bottom layer). PBMCs were washed twice by centrifugation in sterile PBS.
PBMCs were washed in serum-containing separation buffer (sterile PBS, 0.5% w/v bovine serum albumin (BSA), 2 mM EDTA. The cells were diluted 1:100 in Kimura stain and counted using a haemocytometer. The cell pellet was resuspended with the following ratio of reagents from the monocyte isolation kit. 60 μl separation buffer, 20 μl Fc receptor (FcR) blocking reagent and 20 μl Hapten Conjugated Antibody cocktail were added to 10^7 cells and incubated at 6-12° C. for 5 min. The cells were washed twice (5 min, 4° C., 250×g) in separation buffer in a volume 10-20 times higher than the labelling volume. The cell pellet was resuspended in: 60 μl separation buffer, 20 μl FcR blocking reagent, 20 μl MACS anti-hapten microbeads and 5 μl CD15 microbeads (to remove any contaminating neutrophils) per 10^7 cells and incubated at 6-12° C. for 15 min. The cells were washed (5 min, 4° C., 250×g) and resuspended in 500 μl separation buffer. The magnetic column was prepared by washing with 3 ml separation buffer. […]
TNFα was measured using a commercially available ELISA kit and MMP-9 was measured using a Fluorokine kit.

[2] = target: T1, human ADAMTS-4 lacking the C-terminal spacer domain; experiment: ADAMTS-4 inhibition, bovine aggrecan digestion, anti-GELE Western blot; format: biochemical; details: 0.5 nM ADAMTS-4, 1 mg/ml bovine aggrecan, 37° C., 2 h; read-out: Ki(app) ADAMTS-4
Description: ADAMTS-4 lacking the spacer domain (0.5 nM) was incubated with N-TIMP-3 mutants at the concentration indicated for 30 min and then incubated with 1 mg/ml of bovine aggrecan at pH 7.5 for 2 h at 37° C. The reaction was terminated with 10 mM EDTA and samples were deglycosylated and subjected to Western blotting analysis using antibodies that recognise the fragments with the C-terminal GELE1480 as described by Little et al. The bands were quantified by densitometric analyses.
Recombinant human ADAMTS-4 lacking the C-terminal spacer domain was prepared and expressed as described (Kashimagi, M. et al. J. Biol. Chem. 279, 10109-10119, 2004), and bovine cartilage aggrecan was purified according to Hascall and Sajdesa (J. Biol. Chem. 244, 2384-2396, 1969). Antibody that recognized the fragment with the C-terminal GELE was described by Kashiwagi et al (2004). To examine the inhibition of ADAMTS-4 by (-1A) N-TIMP-3 and N-TIMP-3(T2G), 0.5 nM ADAMTS-4 was incubated with a various concentration of the inhibitor for 30 mins at room temperature and then with 1 mg/ml of bovine aggrecan at 37° C. for 2 h. […] The products were then precipated with 10 vol. of acetone and subjected to Western blotting analysis with the anti-GELE antibody as primary antibody and developed as described by Little et al. The staining intensity of the band was quantified by densitometric analysis.

Molecule	EC50 [1] [nM]	Effect on basal TNFα release by MDM [1]	Ki [2] [nM]
(-2A)N-TIMP-3: N-TIMP-3 mutant with two alanine residues on the N-terminal side of Cysteine1 of the TIMP-3 sequence (protein) AACTCSPSHPQDAFCNSDIVIRAKVVGKKLVKEGPFGTLVYTIKQMKMYRGFTKMPHVQYIHTEASESLCGLKLEVNKYQYLLTGRVYDGKMYTGLCNFVERWDQLTLSQRKGLNYRYHLGCN	~180	little effect	
-1A: N-TIMP-3 mutant with the addition of an N-terminal alanine extension (-1A) (protein) ACTCSPSHPQDAFCNSDIVIRAKVVGKKLVKEGPFGTLVYTIKQMKMYRGFTKMPHVQYIHTEASESLCGLKLEVNKYQYLLTGRVYDGKMYTGLCNFVERWDQLTLSQRKGLNYRYHLGCN			18
N-TIMP-3: N-terminal inhibitory domain of TIMP-3 (residues 1 to 121), C-terminally His-tagged, wild-type (protein) CTCSPSHPQDAFCNSDIVIRAKVVGKKLVKEGPFGTLVYTIKQMKMYRGFTKMPHVQYIHTEASESLCGLKLEVNKYQYLLTGRVYDGKMYTGLCNFVERWDQLTLSQRKGLNYRYHLGCN	~180	little effect	
